Results as given in patent US20250171562A1.

What follows are binders tested against mixture of three Der p 2 specific recombinant human IgE clones H10, H12, P4E (human) (UniProt P01854) (assay: RBL-SX38 IgE displacement, FACS).
Sequence of mixture of three Der p 2 specific recombinant human IgE clones H10, H12, P4E (human) (P01854 other isoform, or with tags, fused parts or gaps): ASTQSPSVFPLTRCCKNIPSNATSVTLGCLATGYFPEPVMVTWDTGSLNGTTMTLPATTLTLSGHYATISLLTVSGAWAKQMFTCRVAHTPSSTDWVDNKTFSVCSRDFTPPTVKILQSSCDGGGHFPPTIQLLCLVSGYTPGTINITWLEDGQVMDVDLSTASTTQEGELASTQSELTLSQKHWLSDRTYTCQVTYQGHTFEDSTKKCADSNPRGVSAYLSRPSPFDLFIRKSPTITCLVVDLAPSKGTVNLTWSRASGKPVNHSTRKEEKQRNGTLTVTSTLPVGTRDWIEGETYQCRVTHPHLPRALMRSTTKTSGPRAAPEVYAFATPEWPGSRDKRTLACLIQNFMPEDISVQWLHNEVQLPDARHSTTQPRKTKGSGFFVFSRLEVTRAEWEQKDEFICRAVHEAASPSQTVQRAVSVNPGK

EC50	Max effect/effect 1 µM	Binder
87.2 nM	96%	CIgG4D1A1(G4S)2 (Fc fusion) chain 1: GPPCPPCPAPEFLGGPSVFLFPPKPKDTLMISRTPEVTCVVVDVSQEDPEVQFNWYVDGVEVHNAKTKPREEQFNSTYRVVSVLTVLHQDWLNGKEYKCKVSNKGLPSSIEKTISKAKGQPREPQVYTLPPCQEEMTKNQVSLWCLVKGFYPSDIAVEWESNGQPENNYKTTPPVLDSDGSFFLYSRLTVDKSRWQEGNVFSCSVMHEALHNHYTQKSLSLSLGKGGGGSGGGGSDVQLQESGGGLVQAGGSLRLSCAASGLTFSRCDMGWFRQAPGKEREFVARISANGASTHYADFVKGRFTISRDNAKNTVYLQMNYLKPEDTAVYICAAARVPVTWQLYDYWGQGTQVTVS chain 2: GPPCPPCPAPEFLGGPSVFLFPPKPKDTLMISRTPEVTCVVVDVSQEDPEVQFNWYVDGVEVHNAKTKPREEQFNSTYRVVSVLTVLHQDWLNGKEYKCKVSNKGLPSSIEKTISKAKGQPREPQVCTLPPSQEEMTKNQVSLSCAVKGFYPSDIAVEWESNGQPENNYKTTPPVLDSDGSFFLVSRLTVDKSRWQEGNVFSCSVMHEALHNHYTQKSLSLSLGKGGGGSGGGGSEVQLLESGGGLVQPGGSLRLSCAASGFTFGNYDMAWVRQAPGKRPEWVSSIDTGGDITHYADSVKGRFTISRDNAKNTLYLQMNSLRPEDTAVYWCATDEEYALGPNEFDYYGQGTLVTVSS
–	16%	CIgG4D1A1(RS) (Fc fusion) chain 1: GPPCPPCPAPEFLGGPSVFLFPPKPKDTLMISRTPEVTCVVVDVSQEDPEVQFNWYVDGVEVHNAKTKPREEQFNSTYRVVSVLTVLHQDWLNGKEYKCKVSNKGLPSSIEKTISKAKGQPREPQVYTLPPCQEEMTKNQVSLWCLVKGFYPSDIAVEWESNGQPENNYKTTPPVLDSDGSFFLYSRLTVDKSRWQEGNVFSCSVMHEALHNHYTQKSLSLSLGKRSDVQLQESGGGLVQAGGSLRLSCAASGLTFSRCDMGWFRQAPGKEREFVARISANGASTHYADFVKGRFTISRDNAKNTVYLQMNYLKPEDTAVYICAAARVPVTWQLYDYWGQGTQVTVS chain 2: GPPCPPCPAPEFLGGPSVFLFPPKPKDTLMISRTPEVTCVVVDVSQEDPEVQFNWYVDGVEVHNAKTKPREEQFNSTYRVVSVLTVLHQDWLNGKEYKCKVSNKGLPSSIEKTISKAKGQPREPQVCTLPPSQEEMTKNQVSLSCAVKGFYPSDIAVEWESNGQPENNYKTTPPVLDSDGSFFLVSRLTVDKSRWQEGNVFSCSVMHEALHNHYTQKSLSLSLGKRSEVQLLESGGGLVQPGGSLRLSCAASGFTFGNYDMAWVRQAPGKRPEWVSSIDTGGDITHYADSVKGRFTISRDNAKNTLYLQMNSLRPEDTAVYWCATDEEYALGPNEFDYYGQGTLVTVSS
2 nM	99%	NIgG4D1A1(G4S)3 (Fc fusion) chain 1: DVQLQESGGGLVQAGGSLRLSCAASGLTFSRCDMGWFRQAPGKEREFVARISANGASTHYADFVKGRFTISRDNAKNTVYLQMNYLKPEDTAVYICAAARVPVTWQLYDYWGQGTQVTVSGGGGSGGGGSGGGGSGPPCPPCPAPEFLGGPSVFLFPPKPKDTLMISRTPEVTCVVVDVSQEDPEVQFNWYVDGVEVHNAKTKPREEQFNSTYRVVSVLTVLHQDWLNGKEYKCKVSNKGLPSSIEKTISKAKGQPREPQVYTLPPCQEEMTKNQVSLWCLVKGFYPSDIAVEWESNGQPENNYKTTPPVLDSDGSFFLYSRLTVDKSRWQEGNVFSCSVMHEALHNHYTQKSLSLSLGK chain 2: EVQLLESGGGLVQPGGSLRLSCAASGFTFGNYDMAWVRQAPGKRPEWVSSIDTGGDITHYADSVKGRFTISRDNAKNTLYLQMNSLRPEDTAVYWCATDEEYALGPNEFDYYGQGTLVTVSSGGGGSGGGGSGGGGSGPPCPPCPAPEFLGGPSVFLFPPKPKDTLMISRTPEVTCVVVDVSQEDPEVQFNWYVDGVEVHNAKTKPREEQFNSTYRVVSVLTVLHQDWLNGKEYKCKVSNKGLPSSIEKTISKAKGQPREPQVCTLPPSQEEMTKNQVSLSCAVKGFYPSDIAVEWESNGQPENNYKTTPPVLDSDGSFFLVSRLTVDKSRWQEGNVFSCSVMHEALHNHYTQKSLSLSLGK
1.6 nM	100%	NIgG4D1A1(G4S)2 (Fc fusion) chain 1: DVQLQESGGGLVQAGGSLRLSCAASGLTFSRCDMGWFRQAPGKEREFVARISANGASTHYADFVKGRFTISRDNAKNTVYLQMNYLKPEDTAVYICAAARVPVTWQLYDYWGQGTQVTVSGGGGSGGGGSGPPCPPCPAPEFLGGPSVFLFPPKPKDTLMISRTPEVTCVVVDVSQEDPEVQFNWYVDGVEVHNAKTKPREEQFNSTYRVVSVLTVLHQDWLNGKEYKCKVSNKGLPSSIEKTISKAKGQPREPQVYTLPPCQEEMTKNQVSLWCLVKGFYPSDIAVEWESNGQPENNYKTTPPVLDSDGSFFLYSRLTVDKSRWQEGNVFSCSVMHEALHNHYTQKSLSLSLGK chain 2: EVQLLESGGGLVQPGGSLRLSCAASGFTFGNYDMAWVRQAPGKRPEWVSSIDTGGDITHYADSVKGRFTISRDNAKNTLYLQMNSLRPEDTAVYWCATDEEYALGPNEFDYYGQGTLVTVSSGGGGSGGGGSGPPCPPCPAPEFLGGPSVFLFPPKPKDTLMISRTPEVTCVVVDVSQEDPEVQFNWYVDGVEVHNAKTKPREEQFNSTYRVVSVLTVLHQDWLNGKEYKCKVSNKGLPSSIEKTISKAKGQPREPQVCTLPPSQEEMTKNQVSLSCAVKGFYPSDIAVEWESNGQPENNYKTTPPVLDSDGSFFLVSRLTVDKSRWQEGNVFSCSVMHEALHNHYTQKSLSLSLGK
65.8 nM	96%	CIgG4D1A1(G4S)1 (Fc fusion) chain 1: GPPCPPCPAPEFLGGPSVFLFPPKPKDTLMISRTPEVTCVVVDVSQEDPEVQFNWYVDGVEVHNAKTKPREEQFNSTYRVVSVLTVLHQDWLNGKEYKCKVSNKGLPSSIEKTISKAKGQPREPQVYTLPPCQEEMTKNQVSLWCLVKGFYPSDIAVEWESNGQPENNYKTTPPVLDSDGSFFLYSRLTVDKSRWQEGNVFSCSVMHEALHNHYTQKSLSLSLGKGGGGSDVQLQESGGGLVQAGGSLRLSCAASGLTFSRCDMGWFRQAPGKEREFVARISANGASTHYADFVKGRFTISRDNAKNTVYLQMNYLKPEDTAVYICAAARVPVTWQLYDYWGQGTQVTVS chain 2: GPPCPPCPAPEFLGGPSVFLFPPKPKDTLMISRTPEVTCVVVDVSQEDPEVQFNWYVDGVEVHNAKTKPREEQFNSTYRVVSVLTVLHQDWLNGKEYKCKVSNKGLPSSIEKTISKAKGQPREPQVCTLPPSQEEMTKNQVSLSCAVKGFYPSDIAVEWESNGQPENNYKTTPPVLDSDGSFFLVSRLTVDKSRWQEGNVFSCSVMHEALHNHYTQKSLSLSLGKGGGGSEVQLLESGGGLVQPGGSLRLSCAASGFTFGNYDMAWVRQAPGKRPEWVSSIDTGGDITHYADSVKGRFTISRDNAKNTLYLQMNSLRPEDTAVYWCATDEEYALGPNEFDYYGQGTLVTVSS
64.6 nM	96%	CIgG4D1A1(G4S)3 (Fc fusion) chain 1: GPPCPPCPAPEFLGGPSVFLFPPKPKDTLMISRTPEVTCVVVDVSQEDPEVQFNWYVDGVEVHNAKTKPREEQFNSTYRVVSVLTVLHQDWLNGKEYKCKVSNKGLPSSIEKTISKAKGQPREPQVYTLPPCQEEMTKNQVSLWCLVKGFYPSDIAVEWESNGQPENNYKTTPPVLDSDGSFFLYSRLTVDKSRWQEGNVFSCSVMHEALHNHYTQKSLSLSLGKGGGGSGGGGSGGGGSDVQLQESGGGLVQAGGSLRLSCAASGLTFSRCDMGWFRQAPGKEREFVARISANGASTHYADFVKGRFTISRDNAKNTVYLQMNYLKPEDTAVYICAAARVPVTWQLYDYWGQGTQVTVS chain 2: GPPCPPCPAPEFLGGPSVFLFPPKPKDTLMISRTPEVTCVVVDVSQEDPEVQFNWYVDGVEVHNAKTKPREEQFNSTYRVVSVLTVLHQDWLNGKEYKCKVSNKGLPSSIEKTISKAKGQPREPQVCTLPPSQEEMTKNQVSLSCAVKGFYPSDIAVEWESNGQPENNYKTTPPVLDSDGSFFLVSRLTVDKSRWQEGNVFSCSVMHEALHNHYTQKSLSLSLGKGGGGSGGGGSGGGGSEVQLLESGGGLVQPGGSLRLSCAASGFTFGNYDMAWVRQAPGKRPEWVSSIDTGGDITHYADSVKGRFTISRDNAKNTLYLQMNSLRPEDTAVYWCATDEEYALGPNEFDYYGQGTLVTVSS
